In article PMC5805785, “Site-specific phosphorylation of TRANSPARENT TESTA GLABRA1 mediates carbon partitioning in Arabidopsis seeds” (Nature Communications, 2018):
Values belong to the molecule of their own block, whether it stands above or below them.

Legend:
[1] = target: T1, MBP-TT2 (Arabidopsis thaliana) (UniProt Q9FJA2); assay: EMSA; conditions: LightShift Chemiluminescent EMSA kit (Pierce); buffer, salt, pH and temperature not stated
T1 sequence: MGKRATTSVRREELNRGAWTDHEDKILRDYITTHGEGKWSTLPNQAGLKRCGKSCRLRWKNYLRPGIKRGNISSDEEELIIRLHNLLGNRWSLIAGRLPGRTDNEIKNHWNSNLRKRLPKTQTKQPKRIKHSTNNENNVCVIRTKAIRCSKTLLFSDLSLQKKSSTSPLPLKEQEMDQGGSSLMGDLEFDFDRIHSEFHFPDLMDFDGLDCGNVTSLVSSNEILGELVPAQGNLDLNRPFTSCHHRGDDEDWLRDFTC

[2] = target: T1, MBP-TT2 (Arabidopsis thaliana); assay: competition; conditions: LightShift Chemiluminescent EMSA kit (Pierce); buffer, salt, pH and temperature not stated
[3] = target: T2, MBP-TT2;MBP-TTG1 (Arabidopsis thaliana;Arabidopsis thaliana) (UniProt Q9FJA2+Q9XGN1); assay: EMSA; conditions: LightShift Chemiluminescent EMSA kit (Pierce); buffer, salt, pH and temperature not stated
T2 sequence 1: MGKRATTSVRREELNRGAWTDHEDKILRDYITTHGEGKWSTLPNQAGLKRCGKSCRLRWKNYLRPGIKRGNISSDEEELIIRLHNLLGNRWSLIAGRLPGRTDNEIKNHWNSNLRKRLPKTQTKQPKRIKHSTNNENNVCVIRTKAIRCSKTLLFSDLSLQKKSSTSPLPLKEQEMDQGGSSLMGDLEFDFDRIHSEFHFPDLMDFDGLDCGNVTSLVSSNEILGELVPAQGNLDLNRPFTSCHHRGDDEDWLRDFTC
T2 sequence 2: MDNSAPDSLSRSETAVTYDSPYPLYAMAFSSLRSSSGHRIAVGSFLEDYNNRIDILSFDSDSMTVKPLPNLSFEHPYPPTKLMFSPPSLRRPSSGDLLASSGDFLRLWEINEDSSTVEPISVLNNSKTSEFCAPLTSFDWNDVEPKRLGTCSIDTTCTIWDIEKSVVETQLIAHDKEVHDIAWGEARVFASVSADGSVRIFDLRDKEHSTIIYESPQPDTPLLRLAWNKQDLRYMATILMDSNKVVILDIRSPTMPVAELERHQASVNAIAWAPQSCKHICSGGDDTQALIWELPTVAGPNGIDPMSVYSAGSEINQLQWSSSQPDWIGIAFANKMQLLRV

[4] = target: T3, MBP-TTG1^S215A (Arabidopsis thaliana, UniProt Q9XGN1 1-341, S215A); assay: pull-down; MBP, MBP-TTG1, MBP-TTG1^S215E and MBP-TTG1^S215A on amylose beads as baits; TT2-His as prey, detected with anti-His; conditions: both partners purified
T3 construct: TRANSPARENT TESTA GLABRA1 (TTG1), Arabidopsis thaliana; mutated cDNA cloned into pMAL-c2x; source: E. coli Rossetta (DE3), soluble fusion protein immobilized on amylose beads
T3 sequence (looked up): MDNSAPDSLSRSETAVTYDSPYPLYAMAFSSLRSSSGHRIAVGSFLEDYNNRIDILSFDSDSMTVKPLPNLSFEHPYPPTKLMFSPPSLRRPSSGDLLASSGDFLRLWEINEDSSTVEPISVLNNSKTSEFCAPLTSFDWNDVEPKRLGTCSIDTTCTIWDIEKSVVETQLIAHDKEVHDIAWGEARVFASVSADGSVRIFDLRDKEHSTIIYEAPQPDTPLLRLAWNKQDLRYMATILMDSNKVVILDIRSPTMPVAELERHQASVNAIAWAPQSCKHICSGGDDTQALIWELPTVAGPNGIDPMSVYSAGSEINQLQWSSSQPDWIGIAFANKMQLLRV

[5] = target: T4, MBP-TTG1 (TRANSPARENT TESTA GLABRA1) (Arabidopsis thaliana, UniProt Q9XGN1 1-341); assay: as above; conditions: both partners purified
T4 construct: TRANSPARENT TESTA GLABRA1 (TTG1), Arabidopsis thaliana, WD40 repeat protein; cDNA cloned into pMAL-c2x; also called recombinant MBP-TTG1; source: E. coli Rossetta (DE3), IPTG-induced, soluble fusion protein on amylose resin (methods); called 'in vitro-translated' in the results for the GST pull-down
T4 sequence (looked up): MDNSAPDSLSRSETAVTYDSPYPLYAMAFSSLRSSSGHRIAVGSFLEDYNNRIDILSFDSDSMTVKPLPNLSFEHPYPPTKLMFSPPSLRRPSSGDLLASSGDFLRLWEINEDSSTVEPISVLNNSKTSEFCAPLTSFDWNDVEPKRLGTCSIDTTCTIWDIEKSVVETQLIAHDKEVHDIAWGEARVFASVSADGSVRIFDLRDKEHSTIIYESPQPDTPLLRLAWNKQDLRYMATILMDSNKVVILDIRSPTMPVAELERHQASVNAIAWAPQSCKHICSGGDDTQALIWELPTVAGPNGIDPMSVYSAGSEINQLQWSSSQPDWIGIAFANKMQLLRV

[6] = target: T4, MBP-TTG1 (TRANSPARENT TESTA GLABRA1); assay: native gel or EMSA; EMSA supershift: recombinant MBP-TT2 and MBP-TTG1 incubated together with the biotinylated native GL2 probe (AC-rich motif); conditions: both partners purified

Molecule: ATAATATATAAGGAAGAAGGAGTGCGAGGAGAAGAGGGAAGAGATCATAATTAAGCAAAGAAGCTAGCTAGGGACAGGATTTGTATGTCAATGGCCGTCGACATGTCTTCAAAAAAAAAAAAAAAAGACTTTTTCTCCTCTCCAGCCCTCTCTCTATCTCTCGTATACTACTCTCTCTTTTCTACATACATGTACTTGCTAGCTCTCACATAAACATATATT (double strand) [GL2 mutated probe]
binding [1]: no binding

Molecule: ATAATATATAAGGAAGAAGGAGTGCGAGGAGAAGAGGGAAGAGATCATAATTAAGCAAAGAAGCTAGCTAGGGACAGGATTTGTATGTCAATGGCCGTCGACATGTCTTCCAAACAACCCACCAAAGACTTTTTCTCCTCTCCAGCCCTCTCTCTATCTCTCGTATACTACTCTCTCTTTTCTACATACATGTACTTGCTAGCTCTCACATAAACATATATT (double strand) [GL2 native competitor]
binding [2]: binds

Molecule: ATAATATATAAGGAAGAAGGAGTGCGAGGAGAAGAGGGAAGAGATCATAATTAAGCAAAGAAGCTAGCTAGGGACAGGATTTGTATGTCAATGGCCGTCGACATGTCTTCCAAACAACCCACCAAAGACTTTTTCTCCTCTCCAGCCCTCTCTCTATCTCTCGTATACTACTCTCTCTTTTCTACATACATGTACTTGCTAGCTCTCACATAAACATATATT (double strand) [GL2 native probe]
binding [1]: binds | binding [3]: binds

binding result [4]: binds | binding result [5]: binds
B1: TT2-His (natural protein, Arabidopsis thaliana, UniProt Q9FJA2 1-258, looked up)
chain: MGKRATTSVRREELNRGAWTDHEDKILRDYITTHGEGKWSTLPNQAGLKRCGKSCRLRWKNYLRPGIKRGNISSDEEELIIRLHNLLGNRWSLIAGRLPGRTDNEIKNHWNSNLRKRLPKTQTKQPKRIKHSTNNENNVCVIRTKAIRCSKTLLFSDLSLQKKSSTSPLPLKEQEMDQGGSSLMGDLEFDFDRIHSEFHFPDLMDFDGLDCGNVTSLVSSNEILGELVPAQGNLDLNRPFTSCHHRGDDEDWLRDFTC
notes: TRANSPARENT TESTA2 (TT2; MYB123), Arabidopsis thaliana; cDNA cloned into pET28a; also called MYB123; source: E. coli Rossetta (DE3), IPTG-induced, soluble fusion protein

binding result [6]: binds
B2: MBP-TT2 (natural protein, Arabidopsis thaliana, UniProt Q9FJA2 1-258, looked up)
chain: MGKRATTSVRREELNRGAWTDHEDKILRDYITTHGEGKWSTLPNQAGLKRCGKSCRLRWKNYLRPGIKRGNISSDEEELIIRLHNLLGNRWSLIAGRLPGRTDNEIKNHWNSNLRKRLPKTQTKQPKRIKHSTNNENNVCVIRTKAIRCSKTLLFSDLSLQKKSSTSPLPLKEQEMDQGGSSLMGDLEFDFDRIHSEFHFPDLMDFDGLDCGNVTSLVSSNEILGELVPAQGNLDLNRPFTSCHHRGDDEDWLRDFTC
notes: TRANSPARENT TESTA2 (TT2; MYB123), Arabidopsis thaliana; cDNA cloned into pMAL-c2x; also called MYB123; source: E. coli Rossetta (DE3), recombinant protein produced as for the pull-down assay
